{
  "source": "paper PMC3832974",
  "binders": {"B1": {"name": "Apt 4 (ssDNA)", "DNA": "AGATGCCTGTCGAGCATGCTCTTTGGAGACAGTCCGTGGTAGGGCAGGTTGGGGTGACTTCGTGGAAGAAGCGAGACGGTGTAGCTAAACTGCTTTGTCGACGGG"}},
  "biological_target": "human alpha-thrombin (Homo sapiens, UniProt P00734;P00734 328-363;364-622)",
  "assay": "dot blot immunoenzymatic assay on cloth; 13.5 nM thrombin; UV cross-linked; PBS (0.01 M phosphate pH 7.4, 0.85% NaCl), 13.5 nM thrombin, 20 min, room temperature; aptamers (10 uM) spotted in 0.1 M Tris-HCl pH 8.0, 0.01 M MgCl2, 0.15 M N",
  "data": [
    {"binder": "B1", "values": [
      {"measurement": "binding result", "result": "binds"}
    ]}
  ]
}
